Results: the nanobody polyreactivity screen of Harvey et al. (2022)

Assay: yeast display, Sf9 membrane polyspecificity reagent, FACS + sequencing; frameworks hold sequencing errors
In short: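 Nanobodies came from a synthetic yeast display library in Saccharomyces cerevisiae BJ5465, induced with galactose for 36–48 hours and stained for 1 hour at 4 °C with 10% biotinylated, detergent-solubilized Sf9 membrane reagent. Cells were enriched on streptavidin microbeads and then FACS-sorted, with low and high (top ~1%) gates set on anti-HA fluorescence for expression and streptavidin fluorescence for reagent binding. Each polyreactivity label reflects the gate a clone came from. Genes were amplified by colony PCR, sequenced by MiSeq 2 × 250 and filtered by CDR length.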
In the case of “QVQLVESGGGLVQAGGSLRLSCAASGSTFAWNAMGWYRQAPGKERELVAAISKSGGSTYYADSVKGRFTISRDHAKNTVYLQMNSLTPEDTAVYYCAARGTVYRRYGGSRYDYWGQGTQVTVSS”, the “polyreactivity (PSR sort gate)” value is reported as “high polyreactivity”. For “QVQLVESGGGLVQAGGSLRLSCAASGSTFAWNVMGWYRQAPGKERELVAAISGRGGSTYYADSVKGRFTISRDNAKNTVYLQMNSLKPEDTAVYYCNKVYGRSRDVYDYDYWGQGTQVTVSS”, the “polyreactivity (PSR sort gate)” value was “high polyreactivity”. For “QVQLVESGGGLVQAGGSLRLSCAASGSTFAWYAMGWYRQAPGKERELVATISSSGVSTFYADSVKGRFTISRDNAKNTVYLQMNSLKPEDTAVYYCNRYGNSYYFAPGPLYNYWGQGTQVTVSS”, the “polyreactivity (PSR sort gate)” value was “high polyreactivity”. With “QVQLVESGGGLVQAGGSLRLSCAASGSTFAYNALGWYRQAPGKERELVAAIDINDGNTYYADSVKGRFTISRDTAKNTVNLQINSLKPEDTAVYYCAAEYFYPYYGAMDYWGQGTQVTVSS” the “polyreactivity (PSR sort gate)” value was “low polyreactivity”. For “QVQLVESGGGLVQAGGSLRLSCAASGSTFAYNAMGWYRQAPGKERELVAAIDINDGNTYYADSVKGRFTISRDNAKNTVYLQMNSLNPEDTAVYYCAAEGPYYLGLDGVKDDYWGQGTQVTVSS”, the “polyreactivity (PSR sort gate)” value was “low polyreactivity”. With “QVQLVESGGGLVQAGGSLRLSCAASGSTFAYNAMGWYRQAPGKERELVAAISWGDGITYYADSVKGRFTISRDNAKNTVYLQMNSLKPEDTEVITRDFGYWGQGTQVTVSS” the “polyreactivity (PSR sort gate)” value was “low polyreactivity”. For “QVQLVESGGGLVQAGGSLRLSCAASGSTFAYNAMGWYRQAPGKERELVARISSSGDITYYADSVKGRFTISRDNAKNTVYLQMNSLKPEDTAVYYCAKRYLTRYKGYYYWGQGTQVTVSS”, the “polyreactivity (PSR sort gate)” value was “high polyreactivity”. For “QVQLVESGGGLVQAGGSLRLSCAASGSTFAYNAMGWYRQAPGKERELVASITVSVGSTYYADSVKGRFTISRDNAKNTVYLQMNSLKPEDTAVYYCAARVTRRSSTYWVPRTGYYYWGQGTQVTVSS”, the “polyreactivity (PSR sort gate)” value was “low polyreactivity”. For “QVQLVESGGGLVQAGGSLRLSCAASGSTFAYNDMGWYRQAPWKERDLVADIRSGGNTNYADSVKGRFTISRDNAKNTVYLQMNILKPEDTAVYYCASDGYRIDVYHPDYRYDYWGQGTQVTVSS”, the “polyreactivity (PSR sort gate)” value was “low polyreactivity”. For “QVQLVESGGGLVQAGGSLRLSCAASGSTFAYYAMGWYRHAPGKERELVAAISSGGSTYYADSVKGRFTISRDNAKNTVYLQMNSLKPEDTEVYYCNKLWVGKFKRYEFGYWGQGSQVTVSS”, the “polyreactivity (PSR sort gate)” value was “low polyreactivity”. With “QVQLVESGGGLVQAGGSLRLSCAASGSTFAYYAMGWYRQAPGKERELVAAISRTGGSTYYADSVKGRFTISRDNAKNTVYLQMNSLKPEDNAVYYCNARGPVGTFDYDYWGQGTQVTVSS” the “polyreactivity (PSR sort gate)” value was “low polyreactivity”. With “QVQLVESGGGLVQAGGSLRLSCAASGSTFAYYAMGWYRQAPGKERELVAAITWSGGRTYYADSVKGRFTISRDNAKNTVYLQMNSLKPEDTAVYYCAAGQQHSLFRVPQYRNRAFYYWGQGTQVTVSS” the “polyreactivity (PSR sort gate)” value was “high polyreactivity”. In the case of “QVQLVESGGGLVQAGGSLRLSCAASGSTFAYYAMGWYRQAPGKERELVARITASGGRTYYADSVKGRFTISRDNAKNTVYLQMNSLKPEDTAVYYCAKGRYVEVSYGAHYDYWGQGTQVTVSS”, the “polyreactivity (PSR sort gate)” value is reported as “low polyreactivity”. In the case of “QVQLVESGGGLVQAGGSLRLSCAASGSTFAYYAMGWYRQAPGKERELVAVISVRGGSTYYADSVKGRFTISRDNAKNTVYLQMNSLKPEDTAVYYCAADTFAGYYYWGQGTQVTVSS”, the “polyreactivity (PSR sort gate)” value is reported as “high polyreactivity”. With “QVQLVESGGGLVQAGGSLRLSCAASGSTFAYYTMGWYREAPGKERELVAAISKSGGSTTYADSVKGRFTISRDNAKNTVYLQMNSLKPEDTAVYYCAAYDRVENYNYWGQGTQVTVSS” the “polyreactivity (PSR sort gate)” value was “high polyreactivity”. With “QVQLVESGGGLVQAGGSLRLSCAASGSTFAYYTMGWYRPGPGKEREMVAAIRGGGRTYYADSVKGRFTISRDNAKNTVYLQMNSLKPEDTAVYYCAATVYVTKGYGYWGQGTQVTVSS” the “polyreactivity (PSR sort gate)” value was “high polyreactivity”. In the case of “QVQLVESGGGLVQAGGSLRLSCAASGSTFAYYTMGWYRQAPGKERELVAAISRRGGSTYYADSVKGRFTISRDNAKNTVYLQMNSLKPEDTAVYYCAASFKGPGYYRYYYWGQGTQVTVSS”, the “polyreactivity (PSR sort gate)” value is reported as “high polyreactivity”. In the case of “QVQLVESGGGLVQAGGSLRLSCAASGSTFAYYTRGWYRQAPGKERELVAAITSGGRTSYADSVKGRFTISRDNAKNSVYLQMNSLKPEDTAVYYCAKGRKPGYYYWGQGTQVTVSS”, the “polyreactivity (PSR sort gate)” value is reported as “high polyreactivity”. For “QVQLVESGGGLVQAGGSLRLSCAASGSTFAYYVMGWYRQAPGKERELVAAITGTGGSTYYADSVKGRFTISRDNAKNTVYLQLNSLKPEDTAVYYCAAETPIYYGYWYDSWGQGTQVTVSS”, the “polyreactivity (PSR sort gate)” value was “high polyreactivity”. With “QVQLVESGGGLVQAGGSLRLSCAASGSTFCTYAMGWYRQAPGKERELVAAITQRGASTYYADSVKGRFTISRDNAKNTVYLQMNSLKPEDTAVYYCAAYKRGRPEMDYWGQGTQVSVSS” the “polyreactivity (PSR sort gate)” value was “high polyreactivity”. For “QVQLVESGGGLVQAGGSLRLSCAASGSTFDANAMGWSRQAPRKERELVATISDGGSTNYADSVKGRFTISSDNAKNTVYLQMISVKPEDTAVYYCAAVKLFLGLGFEYWGQGTQVTVSS”, the “polyreactivity (PSR sort gate)” value was “low polyreactivity”. For “QVQLVESGGGLVQAGGSLRLSCAASGSTFDANAMGWYRQAPGKERELVAAISRSGGNTYYPDSVKGRFTISRDNAKNTVYLELNSLKPEDTAVYYCAADFRNAYYDRLDYWGQGTQVTVSS”, the “polyreactivity (PSR sort gate)” value was “low polyreactivity”. With “QVQLVESGGGLVQAGGSLRLSCAASGSTFDAYAMGWYRQAPGKERELVAAITWSGGSTYYADSVKGRFTISRDNAKNTVYLEMNSLKPEDTAVYYCAADKLGELDYWGQGTQVTVSS” the “polyreactivity (PSR sort gate)” value was “low polyreactivity”. In the case of “QVQLVESGGGLVQAGGSLRLSCAASGSTFDDYAMGWYRQAPGKERELVAAISRSDGSTSYADSVKGRFTISRDNAKNTVYLQMNSLKPEDTAVYYCAADPVFKDDLWPVRVRVDYWGQGTQVTVSS”, the “polyreactivity (PSR sort gate)” value is reported as “low polyreactivity”. With “QVQLVESGGGLVQAGGSLRLSCAASGSTFDFYAMGWYRQAPGKERELVAAITSGGTTNYADSVKGRFTISRDNAKNTVYLQINSLKPEDTAVYYCNAYYLGWYRVRAVTGYYYWGQGTQVTVSS” the “polyreactivity (PSR sort gate)” value was “low polyreactivity”. With “QVQLVESGGGLVQAGGSLRLSCAASGSTFDFYPMGWYRQAPGKERELVAAIRIGGNPNYADSVKGRLTISRDNAKNTVYLQLNSLKPEDTAVYYCARDDTYDTPLSPYDYWGQGTQVTVSS” the “polyreactivity (PSR sort gate)” value was “low polyreactivity”. With “QVQLVESGGGLVQAGGSLRLSCAASGSTFDGNAMGWYRPAPGKVRELVAAITRAGRTSYADSVKGRFTISRDNAKNTVYLQMNSLKPEDTAVYYCAKGGYDYWGQGTQVTVSS” the “polyreactivity (PSR sort gate)” value was “low polyreactivity”. In the case of “QVQLVESGGGLVQAGGSLRLSCAASGSTFDGNAMGWYRQAPGKERELVAAISYSGGRTYYADSVKGRFTISRDNAKNTVYLQMNSLKPEDTAVYYCATVRPKYSASSYLAYSIFRYGYWGQGTQVTVSS”, the “polyreactivity (PSR sort gate)” value is reported as “high polyreactivity”. For “QVQLVESGGGLVQAGGSLRLSCAASGSTFDGNVMGWYRQAPGKERELVADIDSGGSTNYADSVKGRFTISRDNAKNTVYLQMNSLKPEDTAVYYCKAEWDDSFIRWFRYRGNYWGQGTQVTVSS”, the “polyreactivity (PSR sort gate)” value was “low polyreactivity”. For “QVQLVESGGGLVQAGGSLRLSCAASGSTFDHYAMGWYRQAPGKERELVAAITRSGGSTYYADSVKGRFTISRDNAKNTVYLQMNSLKPEDTAVYYCNARRWITSDYWGQGTQVTVSS”, the “polyreactivity (PSR sort gate)” value was “high polyreactivity”. For “QVQLVESGGGLVQAGGSLRLSCAASGSTFDIYAMGWYRQAHGKERELVAVISGGEGSTYYADSVKGRFTISRDNAKNTVYLQMNSLKPEDTAVYYCAADYISPGYWDGEYDCWGQGTQVTVSS”, the “polyreactivity (PSR sort gate)” value was “low polyreactivity”. In the case of “QVQLVESGGGLVQAGGSLRLSCAASGSTFDIYAMGWYRQAPGKERELVAAIRGRGGSTYYADSVKGRFTISRDNAKNTVYFQMNSLKPEDTAVYYCAADSYATRYYYWGQGTQVTVSS”, the “polyreactivity (PSR sort gate)” value is reported as “high polyreactivity”. With “QVQLVESGGGLVQAGGSLRLSCAASGSTFDIYAMGWYRQAPGKEREMVAAIDFSGGSTYYADSVKGRFTISRDNAKNTVYLQMNSLKPEDTAVYYCAADVQKHFYSFGDERGFPFDYWGQATQVTVSS” the “polyreactivity (PSR sort gate)” value was “low polyreactivity”. In the case of “QVQLVESGGGLVQAGGSLRLSCAASGSTFDKYAMGWYRQAPGKERELVATISQSGASTYYADSVKGRFTISRDNAKNTVYFQMNSLKPEDTAVYYCAAAGGEQTKDYYYWGQGTQVTVSS”, the “polyreactivity (PSR sort gate)” value is reported as “high polyreactivity”. In the case of “QVQLVESGGGLVQAGGSLRLSCAASGSTFDKYVMGWYRQAPGKERELVAVIDWRDGTTYYADSVKGRFTISRDNAKNTVYLQMNSLKPEDTAVYYCNADNDNYGDVYPYYTAGYGYWGQGTQVTVSS”, the “polyreactivity (PSR sort gate)” value is reported as “low polyreactivity”. For “QVQLVESGGGLVQAGGSLRLSCAASGSTFDLNAMGWYRQAPGKERELVARITSSTGRTFYADSVKGRFTISRDNAKNTVYLQMNSLKPEDTAVYYCAKDHASYSYWPSVLPYDHWGQGTQVTVSS”, the “polyreactivity (PSR sort gate)” value was “low polyreactivity”. In the case of “QVQLVESGGGLVQAGGSLRLSCAASGSTFDNNAMGWYRQAPGKERELVAAISWGGGSTYYADSVKGRFTISRDNAKNTVYLQMNSLKPEDTAVYYCAKLKGTQPNRYDYWGQGTQVTVSS”, the “polyreactivity (PSR sort gate)” value is reported as “low polyreactivity”. In the case of “QVQLVESGGGLVQAGGSLRLSCAASGSTFDNYAMGWYRQAPGKERELVATITSGGSITNYADSVKGRFTISRDNAKNTVYLQMYSLKPEDTAVYYCAKRRYFYYRGDYWGQGTQVTVSS”, the “polyreactivity (PSR sort gate)” value is reported as “high polyreactivity”. For “QVQLVESGGGLVQAGGSLRLSCAASGSTFDPNALGWYRQAPGKERELVAAISYTGGRTYYADSVKGRFTISRDNAKNTVYLQMNSLKPEDTAVYYCAVLVVGSTTQDEPYFSGVEHDYWGQGTQVTVSS”, the “polyreactivity (PSR sort gate)” value was “low polyreactivity”. For “QVQLVESGGGLVQAGGSLRLSCAASGSTFDPNAMGWYRQAPGKERELVAAITSGGSTYYADSVKGRFTISRDNAKNTVYLQMNSLKPEDTAVYYCNAPLEWGVYAAQNWDDGYWGQGTQVTVSS”, the “polyreactivity (PSR sort gate)” value was “low polyreactivity”. In the case of “QVQLVESGGGLVQAGGSLRLSCAASGSTFDPNAMGWYRQARGKERELVAAISYTGGRTYYADSVKGRFTISRDNAKNTVYLQMNSLKPEDTAVYYCAVLVVGSTTQDEPYFSGVEHDYWGQGTQVTVSS”, the “polyreactivity (PSR sort gate)” value is reported as “low polyreactivity”. In the case of “QVQLVESGGGLVQAGGSLRLSCAASGSTFDPYAMGWYRQAPGKEREFVAAISGSGGSTYYADSVKGRFTISRDNAKNTVYLQMNSLKPEDTAVYYCAKDSFPWVDDDYWGQGTQVTVSS”, the “polyreactivity (PSR sort gate)” value is reported as “low polyreactivity”. With “QVQLVESGGGLVQAGGSLRLSCAASGSTFDPYAMGWYRQAPGKEREFVADIDSSVGSTFYADSVKGRFTISRDNAKNTVYLQMNSLKPEDTAVYYCAAVYESYYYEYYYWGQGTQVTVSS” the “polyreactivity (PSR sort gate)” value was “high polyreactivity”.
